Test: soluble on expression in E. coli; label from the status in PepcDB or PDB records
For “MGSDKIHHHHHHVLPHQNLSILIFFFTLDKDHFGNEMKNMYSHIIVGAGILGTSTAYHLAKQGANVLLVDRKEAGRATHVAAGIICPWMTQRRNKAWYRLANNGAHYYDKLIPELEALGETTTGYQKVGTIALHETSKIEKMQMIAENRFPEAPAIQRIERLTADQVRSMFPLIEFVEDALFVSGGARVDGRALRAAMERGAIKHAATILEADASLVVVDGHVQGVQIGQDIHYADQVILTAGVWVNELLEPLQTKLDIRAEKGQILHLDISNDQSKEWPVIMGQRGLYLVSIEDGKLALGSTHEKQLDYNLQPTVKGMYALLTRAIPVAPALEEANINEMRVGLRPYTSNSLPVIGRLANHPNVLIANGLGASGLTIGPYLGQELAKLALDQELEIDLNDYLLQ”, the “soluble on expression in E. coli” value was “not soluble”. In the case of “MKTSYDDTRQHLLDTGYRIMAVKGFSGVGLNEILQSAGVPKGSFYHYFKSKEQFGQALLEDYFRVYLADMDQRFSAPGLNARERLMSYWQKWLDNACPPCDEQRCLVVKLSAEVADLSESMRITLRDGSDGIIERLVGCLGQGRDDGSLAPCDARHMASALYQLWLGASLLSKLHRSPGPLETAMQTTRSLLEI”, the “soluble on expression in E. coli” value is reported as “soluble”. With “MGSDKIHHHHHHEISDGVVRIGLLTDMSGAFSQFSGHGSVVAAQMAIDDCLAAECKGMKIELLSADHQNKTDIALAKAREWADVNKVDAYADMVNSAVALAMQSLAVQKKKAALFAGGPLRISNEDCQPEYAVQWMWDTYSQTAAAIKGLAKPKQGWYFITVDYAYGNAAVAEARKQLEAIGAHTVGESKHPLNSNDMSSQIIAAQQSKADVVAFANSGADSANAIKTASEFKLGAKKLQAAFFPTIYEIKGIGLAQAKGLRFPESFYWDIDDGTRRFSKRFMDIYKKGPPSLTHAGVYSSVYHYLKAVAATKSDDAQTVIRKMHELPIRDDVVRNPKLRPDGRMVHDYYYFRVKSPQESKGPWDLYALEKTLPGDEVFLPVAESQCRVFKGQAK” the “soluble on expression in E. coli” value was “not soluble”. In the case of “MGFDSPRGRGGGGFRGGRGGGSGFTPRGGGGGFRGGDRGRSPGGFRGGDRGRSSSGFRGGDRGRSPGGFRGDREGGFSPRGRGGGFRGGDRGGFRGGDRGGSPWRGGDRGNFRGGDRGGSPWRGGDRGVANRGRGDFSGGSRGGNKFSPRGGGRGGFTPRGRGGNDFSPRGGRGNFQSRGGGSRVGFSDKRKQYDSDGDDDEEEEVPKKKLATGTPFAKQTKPVEDDSGEDEEDEEESDEEPQPPKKTAKSAIATAAEDSDDDEEDDDEEEEESDDDAPQVKKSVAVEEDEEDEEDEEEIEMDEEDEEEEEDEEETEPVAKTPAVKSSLKSVDSTKGKQVNLSKVATPTTVDKKAPATPHPAKTSKNAAGDVPKLNFDDDSDEEDEEDEEVEEEDEEEEEEEEDVPAKKAPVLKQSLSQIAQAIEEDSDDEDEDEEEEEDEEDEEEEEDTTNVPLIKSKADLLKQIAANRAAASAAQDSDEDEDEEDEEDVEEEDEEEEEEEDIPAVKPKVTEKQGGVKRKLDEPTVASKQVKSDGKSIISEEERRRQDRDSRSLFIKEIAKKAKDAEITGLVTGLDSFRRKKNSNFGWLVFNTVADCKKAHDVLSKSKIQGKALYVDFCLSESKAPKEHGVRPINPLQLFINALPGTCNNTDLKNIFRSSTDIKILHASGQPNSKKRAFITFGTVEDAQAAFAKSNGLKVNNHLVDVFYARHQETKVDVKPKKAATPAVQKKIVPKVAADSSGDDSEEVASSDEGIQEVEEEQPKQKKLVKKVEPKTIPRVQQKKPQFKKTGFKGKK”, the “soluble on expression in E. coli” value is reported as “not soluble”. With “EGIPWEGNYTSWLEQKDARLQQEASQESARQKTIEKELEWVRKNPKGRQAKSKARMARFEELQNTEHQKRNETNELFIPPGER” the “soluble on expression in E. coli” value was “soluble”. For “MADRPIEIVDRQNVLTVHLPGTYTVMYDARYCYVSYIPVSETVAEFTLTGFKYPLTNCHISRGSTLCISNELIQSSGTFSFSEGILMMIRSSDSLEHHHHHH”, the “soluble on expression in E. coli” value was “not soluble”. For “MGVPAFFRWLTKKYPATVVNANEDRQRDQDGNRVPVDCTQPNPNFQEFDNLYLDMNGIIHPCTHPEDRPAPKNEDEMFALIFEYIDRIYSIVRPRRLLYMAIDGVAPRAKMNQQRSRRFRASKEMAEKEASIEEQRNRLMAEGIAVPPKKKEEAHFDSNCITPGTPFMARLADALRYYIHDRVTNDASWANIEIILSDANVPGEGEHKIMDYVRKQRGNPAHDPNTVHCLCGADADLIMLGIATHEANFNIIREEFVPNQPRACDLCGQYGHELKECRGAENETDLGDDYCKPEQREKNFIFLRIPVLREYLEKELSMPNLPFKFDVERALDDWVFLCFFVGNDFLPHLPSLEIREGAIDRLIKLYKEMVYQMKGYLTKDGIPELDRVEMIMKGLGRVEDEIFKRRQQDEERFQARMCREESPADIASRKRKAEQPLIKPEEEEDEGPKDDIRLYESGWKDRYYRAKFDVGSDDIEFRHRVAWAYVEGLCWVLRYYYQGCASWDWYFPYHYAPFASDFETVGEFQPDFTRPTKPFNPLEQLMSVFPAASKQHLPVEWQKLMIQDDSPIIDLYPADFRIDLNGKKYAWQGVALLPFVDETRLLATLQSVYPTLTAEEKQRNTRGPNRIFIGRNHKSFEFFQQVAESKSDDLVPLDPTLLNGVSGKIAYDSTATAPGLPFVSPVNHDECQDLPTNCGICVLYEDPEYPQDYIFPALRLDGAKEPEKTLKPDDWNDRRDGRYQPQVGFNRNAPRGSLDQSGHRQVHHYVRGGGGGGGGYRGNSYDDRRGGGGGGGGYNDRQDFGRNYGGRDGGGPQRYHDQQQQRQGGYQGGGYGGGYGGGGGGGGGGGGGSYHQPYNQDQRRGGRGGGGGPPGYQRPPYRGGGGGGYHGNSSWR”, the “soluble on expression in E. coli” value was “not soluble”. With “MYVYDEYDQRIVEDRVKQFRDQTRRYLAGELTGEEFRPLRLQNGLYIQRYAPMLRIAVPYGLLSSRQLRKLAQIARDYDKGYAHISTRQNVQFNWPELEDVPEILAELATVQMHAIQTSGNCIRNTTTDQFAGVARDELVDPRPWCEIIRQWSTFHPEFAHLPRKFKIAVNGAVSDRAAIEVHDIGLEAVKNEAGELGFRVSVGGGLGRTPIVGSFINEFLPWQHLLGYLDAILRVYNRYGRRDNKYKARIKILVKALTPEVFAERVEAEWANLKDGPSTLTEAEVQRVAAHFVDPAYKALDDLDESLARLDAEHPGFARWRARNTFAHKKPGYVAVTLSLKPTGTAPGDVTDKQLEAIADLADRYSFGEVRNSHNQNIILADVEQGELFALWGELRELGFATPNVGLLTDIICCPGGDFCSLANAKSIPIAEAIQRRFDNLDYLFDIGDIDLNISGCMNACGHHHVGHIGILGVDKKGAEFYQVSLGGSSARDASLGQILGPSFAQEQMADVIDKIIQVYVERRTEEEPFIDTFRRIGIDPFKERVYAAN” the “soluble on expression in E. coli” value was “not soluble”. For “MNTDAIESMVRDVLSRMNSLQGEAPAAAPAAGGASRSARVSDYPLANKHPEWVKTATNKTLDDFTLENVLSNKVTAQDMRITPETLRLQASIAKDAGRDRLAMNFERAAELTAVPDDRILEIYNALRPYRSTKEELLAIADDLESRYQAKICAAFVREAATLYVERKKLKGDD”, the “soluble on expression in E. coli” value was “soluble”. For “MGSDKIHHHHHHMEYTSLIFPGDKIDIFASGLSDNSTSYKSSFSDKLTDSMWEITMPVDSGRVVLFQLGTQFDFIIYTQNKTILKSSAIVRQRYRKENMYFLAIELINNLEKIQRRQFFRLPCTIDMDFYEVRYDDKAESELEFCKKMYKNHAINSKNMNTVKSVILDISGGGIRFSLSTPLEEGTYFMAQFSLALEECTQQFNIVCKVINCTQSLDYADRYFARSKFIFDRMTEREKIVRFVFEEERRIRRREME”, the “soluble on expression in E. coli” value was “not soluble”. For “MDEEEEISVVQDMAYDYSGKRLATVSIDREICIWNKKDDWQRTYQWKAHEGPLFGVSWAHPCFGNILATGSYDKRVIIWEEPEASSSYSSSSMDKSTKGWTALAHLVDARDEVRQVQFAPPHLGLLLASGSADGYVRIYTCIDEADLHQWPLLTELDMDSPVVGMSWNPSVDSIPLIVVASHKDCRVWSMDNDTRRWTDWHLFRTSESDTADLSAVAWAPHVGRSFERIALGCEDGSILLFQFPRIQQGNKTNGHEMQPICRLNHGNERIVRLQWNMVGSILASSASDRMVRLWKALPQDGTRWNCFDVVHLNE”, the “soluble on expression in E. coli” value was “not soluble”. In the case of “MYVCKHCGSAMNKDVEIDIVGIKGNTLYVGECKWSNKKIDVRVLDRLRSKVPYLLKDLQVDNLSVVYYLFSRSGFDGLKETEEVKLVELKDLFR”, the “soluble on expression in E. coli” value is reported as “not soluble”. For “MQDEESLMWVQFGGDDGKQVVAELAMRADKYAVRTRDNSSPVLTGFEGVPTYAYSPAWVIEGRFEPYAEPMDVPIGTANPLVDGVHRSVGEVVFRAPGVPHEIRLHAEEEKLGALNVTFHDETNGDTTDEWRKVFIPRPRPDGSVVIDFNRAINYPSAFTPYGTCPMPVRGNSVDVRVEAGEKLPQGLEHHHHHH”, the “soluble on expression in E. coli” value was “soluble”. With “MSLKIVIIGGVAGGMSAATRLRRLMEDAEIVVMEKGPFVSFANCGLPYYVSGEIAEREQLLVQTPEALKARFNLDVRPHHEVVAIDPIEKVITVKHETEILTEHYDKLILSPGAKPFVPPITGLAEAKNVFSLRNVPDLDQIMTALTPETKRAVVIGAGFIGLEMAENLQKRGLEVTLVEKAPHVLPPLDEEMAAFVKAELSKNNVQVITGQSAVAFEEEGQVIRLEDGQTLASDLTILSVGVQPENTLAVEAGVATGLRGGIVVDEHYQTNQPDIYAVGDAIVVKQQITQEDALISLASPANRQGRQVADVIAGLERKNQGSIGTAIVRVFDLTAASTGLSERAAKAAGLTTAVVHISGKDHAGYYPGATDLQLKLVFHPTTGEIYGAQGIGAKGVDKRIDILATAIKGQLTIFDLPELEFTYAPPFGSAKDPVNMLGYAAMNLVEGLSENVQWYELSNELANGAVLLDVRNPAERANGQFKNAVSIPLNELRERLEELDKSTEYIVSCHSGLRSYIAERMLKQAGISAKNLDGAFALYRMVKPEELENEGHHHHHH” the “soluble on expression in E. coli” value was “soluble”. With “KVQSTFAKYSRVRSMTGMTGAEAAKRLLNSQGIYDVQVRKVAGNLTDHYDPRNKTLNLSESVYDSPSVAAIGVAAHECGHAIQDNTEYAPLKIRGAIVPVVNIGTQLSWPM” the “soluble on expression in E. coli” value was “not soluble”. For “MENKTNNTKTEIKKKDMSKTFETIKGELFFEDKVIQKIIGIALDEIDGLLTIDGGFFSNIAGKLVNTDNTTSGVDVEVGKKQVAVDLSIVAEYGKDVTTIYDKMKQVISNEVKKMTGLDVIEINVNVVDVKTKEQHENDSVTLQDHLSDAASATGEFASKQFEKSKEALGVASEKVSDGVQNVKEETEPRVKLEHHHHHH”, the “soluble on expression in E. coli” value was “soluble”. For “AALGPSSQNVTEYVVRVPKNTTKKYNIMAFNAADKVNFATWNQARLERDLSNKKIYQEEEMPESGAGSEFNRKLREEARRKKYGIVLKEFRPEDQPWLLRVNGKSGRKFKGIKKGGVTENTSYYIFTQCPDGAFEAFPVHNWYNFTPLARHRTLTAEEAEEEWERRNKVLN”, the “soluble on expression in E. coli” value was “soluble”. With “VSRDENSWLIDGATPLEEVTRVLDIAYFPDEENYETISGFMMYMLRKIPKKTDSVVYGKYKFEVIDTENFKIDQILVSLVKEQE” the “soluble on expression in E. coli” value was “not soluble”. For “MGSSHHHHHHSQDMDKNELVQKAKLAEQAERYDDMAACMKSVTEQGAELSNEERNLLSVAYKNVVGARRSSWRVVSSIEQKTEGAEKKQQMAREYREKIETELRDICNDVLSLLEKFLIPNASQAESKVFYLKMKGDYYRYLAEVAAGDDKKGIVDQSQQAYQEAFEISKKEMQPTHPIRLGLALNFSVFYYEILNSPEKACSLAKTAFDEAIAELDTLSEESYKDSTLIMQLLRDNLTLWTSDTQGDEAEAGEGGEN”, the “soluble on expression in E. coli” value was “soluble”. In the case of “PVIGSVAPESLAAQAGLEAGQELLAVDGEPVTGWNGVNLQLVRRLGESGTLEVRVQEKGSNVDSTHQVRLDGWLKGEDNPDPIASLGIRPWRPALPPVLAELDPKGPAQAAGLKLGDRLQSIDGIAVDDWQQVVDSVRARPGQRVQLKVLRDGEVLDVALELAVRGEGKARSGYMGAGVAGTEWPAEMLREVSYGPLEAVGQALSRTWTMSLLTLDSIKKMLLGELSVKNLSGPITIAKVAGASAQSGVGDFLNF”, the “soluble on expression in E. coli” value is reported as “not soluble”. For “MDQKKDPSNNLTERRVSKVQRPNKKKVRNQVESLSRNLERNKEGQLLQTVSKGHLEADSGHSLGREKENGELGIRSIFYDKDWNPRGTAPSHYRNIPYNPATFKRRTEVQARLGNLENIKIPK”, the “soluble on expression in E. coli” value was “not soluble”.
